Experiment [1] deals with C*07:01/gp100479-487 multimer (human; mouse) (UniProt P01901). In words: pHLA multimer staining of TILs before stimulation (day 0), flow cytometry. Background: A flow cytometer gives signals particle by particle.
The target is the same in experiment [2]. The experiment is described as follows: pHLA multimer staining of TILs after one peptide-specific stimulation with C*07:01-artificial APCs (day 14), flow cytometry.
Experiment [3] concerns the target T1, gp100 peptide on HLA-C*07:01 (human).
T1 peptide: RYGSFSVTL
The experiment is described as follows: multimer staining. How it is done: T cells (1×10⁵) were incubated for 30 minutes at 37° C. in the presence of 50 nM dasatinib (LC laboratories). The cells were then washed and incubated with 5-10 μg/ml of multimer for 30 minutes at room temperature, and R-phycoerythrin-conjugated AffiniPure Fab fragment goat anti-mouse IgG1 (Jackson ImmunoResearch Laboratories) was added for 15 minutes at 4° C. Next, the cells were washed three times and costained with an anti-CD8 mAb for 15 minutes at 4° C. Dead cells were finally discriminated using the LIVE/DEAD Fixable Dead Cell Stain kit.

Turning to C*07:01+ melanoma TILs, the percentage of multimer+ cells in CD8+ T cells in experiment [1] came out at 0.14%; in experiment [2] it was 1.2%.

B1: C*07:01/gp100479-487 TCR (TCR, V domains shown)
Valpha: DQQVKQNSPSLSVQEGRISILNCDYTNSMFDYFLWYKKYPAEGPTFLISISSIKDKNEDGRFTVFLNKSAKHLSLHIVPSQPGDSAVYFCAANSGNTPLVFGKGTRLSVIA
Vbeta: EPEVTQTPSHQVTQMGQEVILRCVPISNHLYFYWYRQILGQKVEFLVSFYNNEISEKSEIFDDQFSVERPDGSNFTLKIRSTKLEDSAMYFCASSLMGGGNTIYFGEGSWLTVV
In the case of B1, in experiment [3], the binding result is recorded as “recognises”.

Source of the values: patent US20220168346A1 (published 2022).
